Experimental data: article PMC9806585

Substrate: NC(=O)CC[C@H](N)C(=O)O
Assay: cells, lysate or membranes
Details: standard assay: 0.4 mM oxaloacetate, pyridoxal phosphate, 150 mM sodium borate pH 8.5, 37 °C, enzyme not fully purified

B1: recombinant Arabidopsis GTK (Gln transaminase K) (Arabidopsis thaliana) (protein)
chain: MYLDINGVMIKQFSFKASLLPFSSNFRQSSAKIHRPIGATMTTVSTQNESTQKPVQVAKRLEKFKTTIFTQMSILAVKHGAINLGQGFPNFDGPDFVKEAAIQAIKDGKNQYARGYGIPQLNSAIAARFREDTGLVVDPEKEVTVTSGCTEAIAAAMLGLINPGDEVILFAPFYDSYEATLSMAGAKVKGITLRPPDFSIPLEELKAAVTNKTRAILMNTPHNPTGKMFTREELETIASLCIENDVLVFSDEVYDKLAFEMDHISIASLPGMYERTVTMNSLGKTFSLTGWKIGWAIAPPHLTWGVRQAHSYLTFATSTPAQWAAVAALKAPESYFKELKRDYNVKKETLVKGLKEVGFTVFPSSGTYFVVADHTPFGMENDVAFCEYLIEEVGVVAIPTSVFYLNPEEGKNLVRFAFCKDEETLRGAIERMKQKLKRKV
- Km: 300 µM
